# According to the DeepSol protein solubility set:
# Assay: soluble on expression in E. coli; label from the status in PepcDB or PDB records
row,Sequence,soluble on expression in E. coli
1,SWSGLLPPGLNESDAESNSEDEATLENSGLNLQEDKEDESIRKTEIIDFSTDEPKTETESNVNAYEECPSGIPIDMWNKFQELHKKHSEQKSTTSRFRGKRRKRSRKDKLKNEKELHSEPSSNETQWKELTQYFGVNDRFDPPVKRKKVEKSGLEKRIDQAVEEWNIEKAEELSNQLATRELGVKIAKAVACHNFVKAKKEVENSQAARKKKKLAWGFEAKKRWETKSNMGYM,soluble
2,MAHHHHHHMHNSVPASNTCSPFREETVSKRGKRSRGTGGDDKITRGTCSQPFSVITLPPGKLLEWLVCSPCRVYDVNLPRSRNNDNNISSLQCAVLPNFFVEYGGRSYSCVAKVCKPQLRKVLLRALAAVRQEMGSVDDIPHDSLLVVAVSPINAFSSECIHDASRTAMPRAREGCKIVGLCVARELSAPHRMHCESNWSHEKSEASGVGAAVQEGLGDCWEEDATRVGGTNNVRKAFCGVQLVWVADCYRRHGVAKVLVDTARRHISYGFEVPVERVAFSEPTSLGKLFAKSYSGRPDFLIF,not soluble
3,KVYSLRLNQKRNEKPSIFANENVRKALAYALDKKSLVDNILADGSKEIYGYIPEKFVYNPETNEDFRQEAGALVKTDAKKAKEYLDKAKAELNGDVAIELLSRDGDSDRKVAEFIQGQLQETLPGLTINVKTVPLNNAIELMRKGDYELSVGMWGPDYQDPMTFLESSVSGNRMNYSSPTFDQLIEEATTKYANEPETRWQTLIKAEKVLVEEDAALIPLYQEA,not soluble
4,MGSDKIHHHHHHMDFKQVQQSFIDYIRDPQRPVPVGVPLARMQVYRELFFNNVMGFVSNGFPVLKSLYTDEQWQTLVQAFFGQHDCKSPVFIDIAGEFLDFLQFQYSPMDSDPPFMLELAHYEWLELRVATAQQDDRQELIGKEDITYRNLCLAATASVAQYQYPVQQIRPDYRPSEPLVNPVYFCLYQDEVGEVGFLQLTPLSAQVLGYLTEKGQGTFDELTQWLAATYPQMPTETLTQGCLALLEQLATKSIVRGV,not soluble
5,MGSKRVCPDANNSVKSKKAKTLDFLAHPRRKIAIQFFYLGWEHDGLVQQPHTQNTVENHIMQALIKTHLIEDWTKCDFSRCGRTDKGVSAFKQTAAMVVRSLCPGDSGVFWSDSTQEHQKVDYKASGEELPYVKMLNGVLPKTIRVFAWAPVAQTFNARFDCNRRTYKYSFAKADLNLEKMRQGAELLVGEHDFSNFCQIDMNEKRLLQSYVRKVYEVKVEQVSTHPENDMYSMVELTVSGSGFLWHMIRYIVTILQEIGRENEQPSLISQLLDLKKYPSRPQYTLASDTPLCLFDCGYKSEDVEWKVHDYTLKSTVTGLQKTWATYQARSRMMENMLGELTGMAEFSSGDANKGLHEFVQDRPIPSNYIRFENRKMCESLESKKEKMAEKKKNGEESSDKL,not soluble
6,MSLTQKRLGLIMNGITGRMGLNQHLIRSVVAIRAQGGVPLSDGTKVQLDPILIGRNADKVEGLAKQYGIERWGTDLDAALADPGNEIFFDAATTQMRPILLEKAIRAGKHVYCEKPIATNLPEAVRICRLAEEKGVKNGVVQDKLFLPGLQKLKLLRDSGFFGRMISVRGEFGYWVFEGDWGQPAQRPSWNYRSQEGGGMILDMVCHWRYVLDNLFGEVKSVSCLGATHIPSRVDERGQPYEATADDAAYATFELQDGVIAHINMSWCTRVYRDDLVTFQVDGTLGSAVAGLSDCVFQSRVGTPRPVWNPDQKQTMDFYNHWQPVPDTAVFDNGFKVQWEMFIRHVVEDAPYRFTLREGAKGVQLVECALQSWKERRWIDVPTLEASERAVLQAAEEGHHHHHH,soluble
7,MGSDKIHHHHHHMLDDIKKTLWATADKQRANMDAAEYKHIVLGLIFLKYISDTFAGRRAELTRRFADENDEYFLRECDDELLAEELEDRDYYREVNVFWVPETARWESLRSAAKQTDIGKRIDEALAEIEAENPKLKGILDKRYARSQLPDGKLGELVDLISTIGFGEDASHARDVLGQVYEYFLGQFASAEGKKGGQFYTPASIVKTLVAVLAPHHGKVYDPCCGSGGMFVQSEKFIEAHGGKLGDVSIYGQESNPTTWRLAAMNLAIRGIDYNLGREPADTFVRNQHPDLRADFVLANPPFNVSDWWHGSLEGDPRWVYGTPPQGNANYAWLQHMLYHLKPNGRAGIVLANGSMSSSQNSEGDIRRAMVDADVVEVMVALPGQLFFNTQIPACLWFLAKQKTTRKGEVLFIDARKLGSMISRVQTELTDEIIERIANTVAAWRGEAIDGVGEYADVPGYCRSVKLAEIAEHGHVLTPGRYVGAEKVEDDDEAFVEKMQKLTEMLGEQMAKGAELDQLIRQKLGGMGYEF,not soluble
8,MSLEHFFTGTVDRIIFENAANFFKILLLAIEDTDSDIDDFEIIITGTMADIIEGDDYTFWGELTQHPKYGQQLKLSRYQKIKPSSSGLVNYFSSDHFKGIGKKTAEKIIALYGHNTIDHILEDPSKLETISGLSKANRQAFVAKLKLNYGTEQLIAGLVELGLSNRFALQAFEKYKEEALDLVKENPYQLVEDLQGFGFKMADALAENLGIESDSPKRFRAALLHCLLEESINRGDTYVQARQLLDFAITLLEDARQVECDPAAVAEQLSELIIEGKIKNSDTKLFDASLYFAEEGIANNISRLLDTPLSQSFSHDTIQTTIQAVQKDFAITYDQVQQEAITKALTSKVFLLTGGPGTGKTTVIRGILQAYANLHQIDLDKKDLPILLAAPTGRAARRMNELTGLPSATIHRHLGLNGDNDYQAMEDYLDCDLLIVDEFSMVDTWLANQLLGAINSTTQVIIVGDSDQLPSVGPGQVLSDLLKVNSLPQIALQKIFRQSQESTIVNLADQMRRGILAADFRDKKADRSYFEAQAAFIPDMIQKIVLSAIKSGIPAEEIQILAPMYKGQAGINHLNQLMQELLNPLQGQTEFLFNDTHFRKGDKVLHLVNDAQLNVFNGDIGYITDLIPAKYTESKQDELILDFDGSEVTYPRNEWLKLTLAYAMSIHKSQGSEFQVVILPITRQSGRLLQRNVIYTAITRSKSKLILLGEYTAFEYAIKHEGDKRQTYLIERFQEQSDLASSEGHHHHHH,soluble
9,MPSISPASDADRALVIGSGLGGLAAAMRLGAKGWRVTVIDKLDVPGGRGSSITQEGHRFDLGPTIVTVPQSLRDLWKTCGRDFDADVELKPIDPFYEVRWPDGSHFTVRQSTEAMKAEVARLSPGDVAGYEKFLKDSEKRYWFGYEDLGRRSMHKLWDLIKVLPTFGMMRADRSVYQHAALRVKDERLRMALSFHPLFIGGDPFNVTSMYILVSQLEKEFGVHYAIGGVAAIAAAMAKVIEGQGGSFRMNTEVDEILVEKGTATGVRLASGEVLRAGLVVSNADAGHTYMRLLRNHPRRRWTDAHVKSRRWSMGLFVWYFGTKGTKGMWPDVGHHTIVNAPRYKGLVEDIFLKGKLAKDMSLYIHRPSITDPTVAPEGDDTFYALSPVPHLKQAQPVDWQAVAEPYRESVLEVLEQSMPGIGERIGPSLVFTPETFRDRYLSPWGAGFSIEPRILQSAWFRPHNISEEVANLFLVGAGTHPGAGVPGVIGSAEVMAKLAPDAPRARREAEPAERLAAELEHHHHHH,not soluble
10,MKERESVQDQSDPSETDSEELLQLDGKSISEWVSEIDAISKEVEAELVSRDIGCHLVQVLEAVNTVLFDLRGFKRTSITLDPENSYLHSVLNCRCSTAFLISVIYIEVCKRLNVPIVGSPVGEDFLIWPKTEYPEELFKATSGQSLFSIVNGRCVDDPGSMASDLTAKSLQDLDMATNRDIIGIALANLIRLHWRRASKSSHGLMLTSPLSQLNNISSSNFPLLRPQDLRLAIAAAERLLILQPHNWALRRDLGMMLYYDRQYGEAVQELSICMAFAPPEEEAVLEPFVERLHLLRLISSLKPLGSDRLTVP,soluble
11,MRIEVTIAKTSPLPAGAIDALAGELSRRIQYAFPDNEGHVSVRYAAANNLSVIGATKEDKQRISEILQETWESADDWFVSE,soluble
12,TAYLGPAGSWTHQACLDLYGADGLVPLSREALFAAYADGKVERACVPVATSVVGLTPYMEDVLALPRVVVVAEYPKMLGYSLLARPGTRREDIKEVHAHPVAFEEVRPWLEREMPGARRVPAASGGAAAQAVAASATQDKASFGPRVGASVYQLVSLADGIEEGPHNVTRWWVLGRDMP,not soluble
